The values below come from publication PMC5304152.

Values joined by “and” are separate entries in the source; they are usually repeats but may differ in a detail not shown here. Equal entries are not always repeated.

This test has as its target barfin plaice type I antifreeze protein, 40-residue major isoform (bpAFP) (barfin plaice (Liposetta pinnifasciata)). The test can be described thus: AUC; sedimentation velocity, 40,000 rpm, 4 °C, 2.5 mg bpAFP in 0.5 mL (5 mg/mL) 10 mM sodium phosphate pH 7.9, absorbance optics; monomer to tetramer (and octamer).

For “barfin plaice type I antifreeze protein, 40-residue major isoform (bpAFP) (peptide)”, the percent of loaded protein sedimenting as tetramer is 2.7%; the stoichiometry N was 4 and 8.
